Experimental data: US20210253718A1, “FRIZZLED5 PROTEIN-BINDING AGENTS” (Modmab Therapeutics Corporation, priority 2016, published 2021)

T1: FZD5 CRD (Homo sapiens, UniProt Q13467)
T1 construct: K29-T156; GPI anchor signal (C); expressed in transfected cells; host or cells: CHO cells, lentiviral pLenti-puro
T1 sequence (Q13467 29-156): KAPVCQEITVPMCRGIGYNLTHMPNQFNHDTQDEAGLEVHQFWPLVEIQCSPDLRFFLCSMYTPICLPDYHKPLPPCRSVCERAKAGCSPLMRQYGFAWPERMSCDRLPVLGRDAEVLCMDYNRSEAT

T2: FZD10 CRD (Homo sapiens, UniProt Q9ULW2)
T2 construct: 30-156; GPI anchor signal (C); expressed in transfected cells; host or cells: CHO cells, lentiviral pLenti-puro
T2 sequence (Q9ULW2 30-156): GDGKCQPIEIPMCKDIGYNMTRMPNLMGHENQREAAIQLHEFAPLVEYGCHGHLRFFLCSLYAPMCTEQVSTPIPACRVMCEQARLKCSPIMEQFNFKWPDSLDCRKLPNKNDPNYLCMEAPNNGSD

T3: FZD4 CRD (Homo sapiens, UniProt Q9ULV1)
T3 construct: E42-V167; GPI anchor signal (C); expressed in transfected cells; host or cells: CHO cells, lentiviral pLenti-puro
T3 sequence (Q9ULV1 42-167): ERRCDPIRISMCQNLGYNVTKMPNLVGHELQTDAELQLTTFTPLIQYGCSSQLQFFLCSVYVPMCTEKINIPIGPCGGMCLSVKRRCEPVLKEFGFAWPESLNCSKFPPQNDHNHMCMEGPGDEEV

T4: FZD6 CRD (Homo sapiens, UniProt O60353)
T4 construct: S20-P146; GPI anchor signal (C); expressed in transfected cells; host or cells: CHO cells, lentiviral pLenti-puro
T4 sequence (O60353 20-146): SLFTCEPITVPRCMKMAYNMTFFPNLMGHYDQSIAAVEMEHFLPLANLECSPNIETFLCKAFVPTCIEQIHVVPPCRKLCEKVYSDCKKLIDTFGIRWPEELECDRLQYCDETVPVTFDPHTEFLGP

T5: FZD9 CRD (Homo sapiens, UniProt O00144)
T5 construct: G35-A161; GPI anchor signal (C); expressed in transfected cells; host or cells: CHO cells, lentiviral pLenti-puro
T5 sequence (O00144 35-161): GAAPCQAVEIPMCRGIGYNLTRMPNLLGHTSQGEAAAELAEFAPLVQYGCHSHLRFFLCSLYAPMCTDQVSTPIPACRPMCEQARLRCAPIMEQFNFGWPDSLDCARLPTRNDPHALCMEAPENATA

B1: Fab-2924: anti-FZD5 Fab with antibody variable region Fv-2924; CDR SEQ ID NOs: 35, 36, 63, 101, 139, 153 (antibody, V domains shown)
VH: EVQLVESGGGLVQPGGSLRLSCAASGFNISYSYIHWVRQAPGKGLEWVASIYSYYSSTSYADSVKGRFTISADTSKNTAYLQMNSLRAEDTAVYYCARGALDYWGQGTLVTVSS
VL: DIQMTQSPSSLSASVGDRVTITCRASQSVSSAVAWYQQKPGKAPKLLIYSASSLYSGVPSRFSGSRSGTDFTLTISSLQPEDFATYYCQQWYSGHSLITFGQGTKVEIK
B2: Fab-2927: anti-FZD5 Fab with antibody variable region Fv-2927; CDR SEQ ID NOs: 35, 36, 66, 104, 142, 174 (antibody, V domains shown)
VH: EVQLVESGGGLVQPGGSLRLSCAASGFNIYYSSMHWVRQAPGKGLEWVASIYPSYGYTSYADSVKGRFTISADTSKNTAYLQMNSLRAEDTAVYYCARYGYYGFDYWGQGTLVTVSS
VL: DIQMTQSPSSLSASVGDRVTITCRASQSVSSAVAWYQQKPGKAPKLLIYSASSLYSGVPSRFSGSRSGTDFTLTISSLQPEDFATYYCQQWGSHGYLITFGQGTKVEIK
B3: Fab-2928: anti-FZD5 Fab with antibody variable region Fv-2928; CDR SEQ ID NOs: 35, 36, 67, 105, 143, 175 (antibody, V domains shown)
VH: EVQLVESGGGLVQPGGSLRLSCAASGFNISYSSIHWVRQAPGKGLEWVASIYPSYSSTYYADSVKGRFTISADTSKNTAYLQMNSLRAEDTAVYYCARYYAMDYWGQGTLVTVSS
VL: DIQMTQSPSSLSASVGDRVTITCRASQSVSSAVAWYQQKPGKAPKLLIYSASSLYSGVPSRFSGSRSGTDFTLTISSLQPEDFATYYCQQAFYYPITFGQGTKVEIK
B4: Fab-2929: anti-FZD5 Fab with antibody variable region Fv-2929; CDR SEQ ID NOs: 35, 36, 68, 106, 144, 162 (antibody, V domains shown)
VH: EVQLVESGGGLVQPGGSLRLSCAASGFNISYYYIHWVRQAPGKGLEWVASIYPSSSSTSYADSVKGRFTISADTSKNTAYLQMNSLRAEDTAVYYCARGAMDYWGQGTLVTVSS
VL: DIQMTQSPSSLSASVGDRVTITCRASQSVSSAVAWYQQKPGKAPKLLIYSASSLYSGVPSRFSGSRSGTDFTLTISSLQPEDFATYYCQQWYSSYGLITFGQGTKVEIK
B5: Fab-2930: anti-FZD5 Fab with antibody variable region Fv-2930; CDR SEQ ID NOs: 35, 36, 69, 107, 145, 153 (antibody, V domains shown)
VH: EVQLVESGGGLVQPGGSLRLSCAASGFNLSYYYIHWVRQAPGKGLEWVASIYPYSGSTSYADSVKGRFTISADTSKNTAYLQMNSLRAEDTAVYYCARGALDYWGQGTLVTVSS
VL: DIQMTQSPSSLSASVGDRVTITCRASQSVSSAVAWYQQKPGKAPKLLIYSASSLYSGVPSRFSGSRSGTDFTLTISSLQPEDFATYYCQQWYGPYLITFGQGTKVEIK
B6: Fab-2932: anti-FZD5 Fab with antibody variable region Fv-2932; CDR SEQ ID NOs: 35, 36, 71, 108, 147, 153 (antibody, V domains shown)
VH: EVQLVESGGGLVQPGGSLRLSCAASGFNISYSYMHWVRQAPGKGLEWVASIYSSYSSTSYADSVKGRFTISADTSKNTAYLQMNSLRAEDTAVYYCARGALDYWGQGTLVTVSS
VL: DIQMTQSPSSLSASVGDRVTITCRASQSVSSAVAWYQQKPGKAPKLLIYSASSLYSGVPSRFSGSRSGTDFTLTISSLQPEDFATYYCQQWYGSFALITFGQGTKVEIK

Key:
PATU8988S cells = experiment: Effect of anti-FZD5 Fabs on proliferation of pancreatic cancer cell lines (percent growth inhibition); format: cell-based, human; settings: Fab 2 μg/ml
RWP1 cells = experiment: as above; format: cell-based, human; settings: Fab 2 μg/ml
[1] = tested on: CHO cells not expressing Frizzled CRD; experiment: Flow cytometry of anti-FZD5 Fab binding to CHO cells not expressing Frizzled CRD (background)
Description: The binding of anti-FZD5 Fabs to cell surface-expressed Frizzled protein was further determined for each member of the Frizzled family via flow cytometry and immunofluorescence analysis of a panel of 10 CHO cell lines, each ectopically over-expressing the extracellular cysteine-rich domain (CRD) of a different Frizzled protein family member.

ASPC-1 cells = experiment: Effect of anti-FZD5 Fabs on proliferation of pancreatic cancer cell lines (percent growth inhibition); format: cell-based, human; settings: Fab 2 μg/ml
FZD5 CRD = target: T1, FZD5 CRD; experiment: Immunofluorescence of anti-FZD5 Fab binding to CHO cells overexpressing Frizzled CRD; set-up: key: −: no binding; +: very weak binder; ++: weak binder; +++: good binder; ++++: very good binder
In short: (§1)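 Specificity of anti-FZD5 Fabs was tested on CHO cells displaying membrane-anchored Frizzled CRDs (myc-tagged, GPI-linked), one family member per line. Detection was by immunofluorescence.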

FZD10 CRD = target: T2, FZD10 CRD; experiment: as above; set-up: key: −: no binding; +: very weak binder; ++: weak binder; +++: good binder; ++++: very good binder
In short: as §1

FZD4 CRD = target: T3, FZD4 CRD; experiment: as above; set-up: key: −: no binding; +: very weak binder; ++: weak binder; +++: good binder; ++++: very good binder
In short: as §1

FZD6 CRD = target: T4, FZD6 CRD; experiment: as above; set-up: key: −: no binding; +: very weak binder; ++: weak binder; +++: good binder; ++++: very good binder
In short: as §1

FZD2 CRD = target: T6, FZD2 CRD (Homo sapiens, UniProt Q14332); experiment: as above; set-up: key: −: no binding; +: very weak binder; ++: weak binder; +++: good binder; ++++: very good binder
T6 construct: D35-P161; GPI anchor signal (C); expressed in transfected cells; host or cells: CHO cells, lentiviral pLenti-puro
In short: as §1

FZD9 CRD = target: T5, FZD9 CRD; experiment: as above; set-up: key: −: no binding; +: very weak binder; ++: weak binder; +++: good binder; ++++: very good binder
In short: as §1

Row | Molecule | percent growth inhibition, PATU8988s 2 μg/ml (PATU8988S cells) [%] | percent growth inhibition, RWP1 2 μg/ml (RWP1 cells) [%] | Median fluorescence, Frizzled CRD overexpressed on CHO cells: None [1] | percent growth inhibition, ASPC-1 2 μg/ml (ASPC-1 cells) [%] | Immunofluorescence binding, Frizzled CRD overexpressed on CHO cells: FZD5 (FZD5 CRD) | Immunofluorescence binding, Frizzled CRD overexpressed on CHO cells: FZD10 (FZD10 CRD) | Immunofluorescence binding, Frizzled CRD overexpressed on CHO cells: FZD4 (FZD4 CRD) | Immunofluorescence binding, Frizzled CRD overexpressed on CHO cells: FZD6 (FZD6 CRD) | Immunofluorescence binding, Frizzled CRD overexpressed on CHO cells: FZD2 (FZD2 CRD) | Immunofluorescence binding, Frizzled CRD overexpressed on CHO cells: FZD9 (FZD9 CRD)
1 | B1 | −16.11 | 42.76 | 4.1 | 8.55 | ++++ | − | − | − | − | −
2 | B2 | −15.15 | 46.02 | 3.79 | 12.47 | ++++ | − | − | − | +++ | −
3 | B3 | −2.11 | −8.19 | 3.68 | 2.33 | ++++ | − | − | − | − | −
4 | B4 | −24.05 | 0.41 | 3.19 | 41.68 | ++++ | − | − | − | − | −
5 | B5 | −0.39 | 17.91 | 4.66 | 21.31 | ++++ | − | − | − | − | −
6 | B6 | −14.70 | 32.22 | 3.59 | 28.71 | ++++ | − | − | − | − | −
